B1: MBP-AMBRA1^WD40 (residues M1-N204 directly fused to S853-G1044), wild type (domain or fragment, human, UniProt Q9C0C7 1-204, looked up)
chain: MKVVPEKNAVRILWGRERGARAMGAQRLLQELVEDKTRWMKWEGKRVELPDSPRSTFLLAFSPDRTLLASTHVNHNIYITEVKTGKCVHSLIGHRRTPWCVTFHPTISGLIASGCLDGEVRIWDLHGGSESWFTDSNNAIASLAFHPTAQLLLIATANEIHFWDWSRREPFAVVKTASEMERVRLVRFDPLGHYLLTAIVNPSNSNIANTTYRLQWWDFTKFDLPEISNASVNVLVQNCKIYNDASCDISADGQLLAAFIPSSQRGFPDEGILAVYSLAPHNLGEMLYTKRFGPNAISVSLSPMGRYVMVGLASRRILLHPSTEHMVAQVFRLQQAHGGETSMRRVFNVLYPMPADQRRHVSINSARWLPEPGLGLAYGTNKGDLVICRPEALNSG
B2: MBP-AMBRA1^WD40 F57A (domain or fragment, human, UniProt Q9C0C7 1-204, looked up)
chain: MKVVPEKNAVRILWGRERGARAMGAQRLLQELVEDKTRWMKWEGKRVELPDSPRSTALLAFSPDRTLLASTHVNHNIYITEVKTGKCVHSLIGHRRTPWCVTFHPTISGLIASGCLDGEVRIWDLHGGSESWFTDSNNAIASLAFHPTAQLLLIATANEIHFWDWSRREPFAVVKTASEMERVRLVRFDPLGHYLLTAIVNPSNSNIANTTYRLQWWDFTKFDLPEISNASVNVLVQNCKIYNDASCDISADGQLLAAFIPSSQRGFPDEGILAVYSLAPHNLGEMLYTKRFGPNAISVSLSPMGRYVMVGLASRRILLHPSTEHMVAQVFRLQQAHGGETSMRRVFNVLYPMPADQRRHVSINSARWLPEPGLGLAYGTNKGDLVICRPEALNSG
B3: MBP-AMBRA1^WD40 W99R (domain or fragment, human, UniProt Q9C0C7 1-204, looked up)
chain: MKVVPEKNAVRILWGRERGARAMGAQRLLQELVEDKTRWMKWEGKRVELPDSPRSTFLLAFSPDRTLLASTHVNHNIYITEVKTGKCVHSLIGHRRTPRCVTFHPTISGLIASGCLDGEVRIWDLHGGSESWFTDSNNAIASLAFHPTAQLLLIATANEIHFWDWSRREPFAVVKTASEMERVRLVRFDPLGHYLLTAIVNPSNSNIANTTYRLQWWDFTKFDLPEISNASVNVLVQNCKIYNDASCDISADGQLLAAFIPSSQRGFPDEGILAVYSLAPHNLGEMLYTKRFGPNAISVSLSPMGRYVMVGLASRRILLHPSTEHMVAQVFRLQQAHGGETSMRRVFNVLYPMPADQRRHVSINSARWLPEPGLGLAYGTNKGDLVICRPEALNSG
B4: MBP-AMBRA1^WD40 H75A/R96A (domain or fragment, human, UniProt Q9C0C7 1-204, looked up)
chain: MKVVPEKNAVRILWGRERGARAMGAQRLLQELVEDKTRWMKWEGKRVELPDSPRSTFLLAFSPDRTLLASTHVNANIYITEVKTGKCVHSLIGHRATPWCVTFHPTISGLIASGCLDGEVRIWDLHGGSESWFTDSNNAIASLAFHPTAQLLLIATANEIHFWDWSRREPFAVVKTASEMERVRLVRFDPLGHYLLTAIVNPSNSNIANTTYRLQWWDFTKFDLPEISNASVNVLVQNCKIYNDASCDISADGQLLAAFIPSSQRGFPDEGILAVYSLAPHNLGEMLYTKRFGPNAISVSLSPMGRYVMVGLASRRILLHPSTEHMVAQVFRLQQAHGGETSMRRVFNVLYPMPADQRRHVSINSARWLPEPGLGLAYGTNKGDLVICRPEALNSG

These binders were tested against His6-DDB1 (human, UniProt Q16531 1-1140) (assay: SEC + other: negative stain EM).
Sequence of His6-DDB1 (Q16531 whole entry): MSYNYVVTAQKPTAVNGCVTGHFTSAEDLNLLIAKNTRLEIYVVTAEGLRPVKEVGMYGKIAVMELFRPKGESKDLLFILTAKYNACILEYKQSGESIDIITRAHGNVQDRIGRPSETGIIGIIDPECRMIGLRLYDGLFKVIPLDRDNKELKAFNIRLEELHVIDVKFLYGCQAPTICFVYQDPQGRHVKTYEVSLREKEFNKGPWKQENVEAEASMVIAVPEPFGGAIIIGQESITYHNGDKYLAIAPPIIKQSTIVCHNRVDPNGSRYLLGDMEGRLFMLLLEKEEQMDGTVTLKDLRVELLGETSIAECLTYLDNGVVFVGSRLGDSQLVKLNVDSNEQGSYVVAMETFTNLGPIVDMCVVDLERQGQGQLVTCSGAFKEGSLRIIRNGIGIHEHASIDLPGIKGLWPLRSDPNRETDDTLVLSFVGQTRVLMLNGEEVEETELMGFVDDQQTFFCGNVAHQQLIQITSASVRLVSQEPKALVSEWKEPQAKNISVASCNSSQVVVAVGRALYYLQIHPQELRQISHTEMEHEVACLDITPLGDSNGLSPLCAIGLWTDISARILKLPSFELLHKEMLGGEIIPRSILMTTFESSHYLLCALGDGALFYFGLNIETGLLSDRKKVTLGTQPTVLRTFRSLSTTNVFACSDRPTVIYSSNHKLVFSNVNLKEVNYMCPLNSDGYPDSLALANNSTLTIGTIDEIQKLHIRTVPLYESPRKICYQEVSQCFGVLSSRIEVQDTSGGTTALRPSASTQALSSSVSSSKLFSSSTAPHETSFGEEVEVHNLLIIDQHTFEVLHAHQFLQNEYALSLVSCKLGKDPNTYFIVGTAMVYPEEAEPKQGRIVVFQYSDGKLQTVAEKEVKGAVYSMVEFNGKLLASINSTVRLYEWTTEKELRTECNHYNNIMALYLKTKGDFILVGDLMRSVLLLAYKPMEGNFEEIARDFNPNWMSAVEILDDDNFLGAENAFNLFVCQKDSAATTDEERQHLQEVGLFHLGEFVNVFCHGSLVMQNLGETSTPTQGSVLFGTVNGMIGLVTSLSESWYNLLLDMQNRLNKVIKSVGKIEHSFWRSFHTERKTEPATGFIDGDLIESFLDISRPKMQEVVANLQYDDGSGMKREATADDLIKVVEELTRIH

Binding result, binds:
B1
B2
B3
B4
